From patent US20250215104A1 (WALDEN BIOSCIENCES, published 2025)

Columns and labels:
[1] = target: T1, human soluble urokinase plasminogen activator receptor (suPAR) (human, UniProt Q03405 23-303, limits assumed); assay: dissociation rate (kdis) on human suPAR; method not stated
T1 construct: also called hsuPAR; human suPAR
T1 sequence (Q03405 23-303 limits assumed): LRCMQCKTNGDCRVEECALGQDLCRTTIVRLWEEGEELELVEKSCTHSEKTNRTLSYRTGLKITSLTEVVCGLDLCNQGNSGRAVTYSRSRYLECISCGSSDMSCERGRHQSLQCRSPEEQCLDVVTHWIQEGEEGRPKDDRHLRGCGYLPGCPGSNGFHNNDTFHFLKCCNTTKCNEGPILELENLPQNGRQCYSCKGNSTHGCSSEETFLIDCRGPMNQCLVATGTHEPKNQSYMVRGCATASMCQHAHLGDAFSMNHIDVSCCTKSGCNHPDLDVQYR

[2] = target: T2, human soluble urokinase plasminogen activator receptor (suPAR) (human, UniProt Q03405 23-303, limits assumed); assay: BLI (Octet) off-rate screen of scFv clones
T2 construct: Column head says only 'human'; also called hsuPAR; human suPAR
T2 sequence (Q03405 23-303 limits assumed): as above

[3] = target: T3, cynomolgus soluble urokinase plasminogen activator receptor (suPAR) (cynomolgus, UniProt Q9GK78 23-303, limits assumed); assay: BLI (Octet) off-rate screen of scFv clones
T3 construct: Column head says only 'cynomologus'; also called cynomolgus suPAR; cynomolgus uPAR
T3 sequence (Q9GK78 23-303 limits assumed): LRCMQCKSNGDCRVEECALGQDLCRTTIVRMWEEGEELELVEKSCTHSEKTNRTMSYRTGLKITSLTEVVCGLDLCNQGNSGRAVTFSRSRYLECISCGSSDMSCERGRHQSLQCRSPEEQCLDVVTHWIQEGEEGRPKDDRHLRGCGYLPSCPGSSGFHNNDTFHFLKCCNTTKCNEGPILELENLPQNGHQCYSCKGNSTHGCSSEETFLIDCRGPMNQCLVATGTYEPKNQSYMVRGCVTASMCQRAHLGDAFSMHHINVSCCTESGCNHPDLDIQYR

Row | Binder | koff [1] | koff [2] | koff [3]
1 | WAb0001 (antibody, V domains shown, constant regions not tied to this antibody; also called WAb CD0001) VH: QVQLVQSGAEVKKPGASVKVSCKASGYNIKDYYIHWVRQAPGQGLEWMGWISPDSGVTNYAQKFQGRVTMTRDTSTSTVYMELSSLRSEDTAVYYCARGYDVDWFVYWGQGTLVTVSS VL: DIQMTQSPSSLSASVGDRVTITCSARQSVSYMYWYQQKPGKAPKLLIYRTSNLASGVPSRFSGSGSGTDFTLTISSLQPEDFATYYCQQYHSYPPTFGGGTKVEIK | 3.04e-07 s⁻¹ | – | –
2 | WAb0002 (antibody, V domains shown, constant regions not tied to this antibody; also called WAb CD0002) VH: QVQLVQSGAEVKKPGASVKVSCKASGYNIKDYYIHWVRQAPGQGLEWMGWISPSSGVTNYAQKFQGRVTMTRDTSTSTVYMELSSLRSEDTAVYYCARGYDVDWFVYWGQGTLVTVSS VL: DIQMTQSPSSLSASVGDRVTITCSARQSVSYMYWYQQKPGKAPKLLIYRTSNLASGVPSRFSGSGSGTDFTLTISSLQPEDFATYYCQQYHSYPPTFGGGTKVEIK | 8.37e-05 s⁻¹ | – | –
3 | WAb0009 (antibody, V domains shown, constant regions not tied to this antibody; also called WAb CD0009) VH: QVQLVQSGAEVKKPGASVKVSCKASGYTFTGHYVHWVRQAPGQGLEWMGWIDHENGNTIYDQKFQGRVTMTRDTSTSTVYMELSSLRSEDTAVYYCARGYDVDWFVYWGQGTLVTVSS VL: DIQMTQSPSSLSASVGDRVTITCSARSSVSYMYWYQQKPGKAPKLLIYRTSNLASGVPSRFSGSGSGTDFTLTISSLQPEDFATYYCQQYHSYPPTFGGGTKVEIK | 3.47e-07 s⁻¹ | – | –
4 | WAb0005 (antibody, V domains shown, constant regions not tied to this antibody; also called WAb CD0005) VH: QVQLVQSGAEVKKPGASVKVSCKASGYTFIGSYVHWVRQAPGQGLEWMGWIDHENGNTIYDQKFQGRVTMTRDTSTSTVYMELSSLRSEDTAVYYCARGYDVDWFVYWGQGTLVTVSS VL: DIQMTQSPSSLSASVGDRVTITCSARSSVSYMYWYQQKPGKAPKLLIYRTSSLASGVPSRFSGSGSGTDFTLTISSLQPEDFATYYCQQYHSYPPTFGGGTKVEIK | 3.97e-07 s⁻¹ | – | –
5 | WAb0008 (antibody, V domains shown, WAb0006 VL + mouse kappa constant; also called WAb CD0008; WAb008) VH: QVQLVQSGAEVKKPGASVKVSCKASGYTFTSHYIQWVRQAPGQGLEWMGWIDHENGNTIYDQKFQGRVTMTRDTSTSTVYMELSSLRSEDTAVYYCARGTDVDWFVYWGQGTLVTVSS VL: DIQMTQSPSSLSASVGDRVTITCSARSSVSYMYWYQQKPGKAPKLLIYRTSNLASGVPSRFSGSGSGTDFTLTISSLQPEDFATYYCQQYHSYPPTFGGGTKVEIK | 2.83e-07 s⁻¹ | – | –
6 | WAb0007 (antibody, V domains shown, also called WAb CD0007) VH: QVQLVQSGAEVKKPGASVKVSCKASGYTFIGSYVHWVRQAPGQGLEWMGWIDHENGNTIYDQKFQGRVTMTRDTSTSTVYMELSSLRSEDTAVYYCARGYDVDWFVYWGQGTLVTVSS VL: DIQMTQSPSSLSASVGDRVTITCSARSSVSYMYWYQQKPGKAPKLLIYRTSSLASGVPSRFSGSGSGTDFTLTISSLQPEDFATYYCQQYHSYPPTFGGGTKVEIK | 2.76e-07 s⁻¹ | – | –
7 | WAb0004 (antibody, V domains shown, constant regions not tied to this antibody; also called WAb CD0004) VH: QVQLVQSGAEVKKPGASVKVSCKASGFNIKDYYIHWVRQAPGQGLEWMGWIDPESGSTIYDQKFQGRVTMTRDTSTSTVYMELSSLRSEDTAVYYCARGYDIDWFVYWGQGTLVTVSS VL: DIQMTQSPSSLSASVGDRVTITCSARSSVSYMYWYQQKPGKAPKLLIYRTSNLASGVPSRFSGSGSGTDFTLTISSLQPEDFATYYCQQYHSYPPTFGGGTKVEIK | 2.61e-07 s⁻¹ | – | –
8 | WAb0006 (antibody, V domains shown, light chain is WAL0921 (human kappa) with Q27S; also called WAb CD0006; original backup candidate) VH: QVQLVQSGAEVKKPGASVKVSCKASGYTFTSHYIQWVRQAPGQGLEWMGWIDHENGNTIYDQKFQGRVTMTRDTSTSTVYMELSSLRSEDTAVYYCARGTDVDWFVYWGQGTLVTVSS VL: DIQMTQSPSSLSASVGDRVTITCSARSSVSYMYWYQQKPGKAPKLLIYRTSNLASGVPSRFSGSGSGTDFTLTISSLQPEDFATYYCQQYHSYPPTFGGGTKVEIK | 3.39e-07 s⁻¹ | – | –
9 | WAb0010 (antibody, V domains shown, constant regions not tied to this antibody; also called WAb CD0010) VH: QVQLVQSGAEVKKPGASVKVSCKASGYTFTGNYVHWVRQAPGQGLEWMGWIDHENGNTIYDQKFQGRVTMTRDTSTSTVYMELSSLRSEDTAVYYCARGYDVDWFVYWGQGTLVTVSS VL: DIQMTQSPSSLSASVGDRVTITCSARSSVSYMYWYQQKPGKAPKLLIYRTSNLASGVPSRFSGSGSGTDFTLTISSLQPEDFATYYCQQYHSYPPTFGGGTKVEIK | 3.89e-07 s⁻¹ | – | –
10 | WAb0003 (antibody, V domains shown, constant regions not tied to this antibody; also called WAb CD0003) VH: QVQLVQSGAEVKKPGASVKVSCKASGFNIKDYYIHWVRQAPGQGLEWMGWIDPENGSTIYDQKFQGRVTMTRDTSTSTVYMELSSLRSEDTAVYYCARGYDIDWFVYWGQGTLVTVSS VL: DIQMTQSPSSLSASVGDRVTITCSARSSVSYMYWYQQKPGKAPKLLIYRTSNLASGVPSRFSGSGSGTDFTLTISSLQPEDFATYYCQQYHSYPPTFGGGTKVEIK | 3.57e-07 s⁻¹ | – | –

Further lines, results first:

Row | koff [1] | koff [2] | koff [3] | Binder
11 | – | 0.00555 s⁻¹ | 0.000775 s⁻¹ | suPAR_DB05_D11 (scFv, V domains shown, Screened as scFv) VH: QVQLVQSGAEVKKPGASVKVSCKASGYTLTGYYMQWVRQAPGQGLEWMGWIDPENGSTIYDQKFQGRVTMTRDTSTSTVYMELSSLRSEDTAVYYCARGYDVDWFVYWGQGTLVTVSS VL: DIQMTQSPSSLSASVGDRVTITCSASSSVSYMYWYQQKPGKAPKLLIYRTSNLASGVPSRFSGSGSGTDFTLTISSLQPEDFATYYCQQYHSYPPTFGGGTKVEIK
12 | 2.93e-07 s⁻¹ | – | – | WAb0012 (antibody, V domains shown, constant regions not tied to this antibody; also called WAb CD0012) VH: QVQLVQSGAEVKKPGASVKVSCKASGYTFTGYYMHWVRQAPGQGLEWMGWIDHENGNTIYDQKFQGRVTMTRDTSTSTVYMELSSLRSEDTAVYYCARGYDVDWFVYWGQGTLVTVSS VL: DIQMTQSPSSLSASVGDRVTITCSARQSISYMYWYQQKPGKAPKLLIYRTSNLASGVPSRFSGSGSGTDFTLTISSLQPEDFATYYCQQYHSYPPTFGGGTKVEIK
13 | 2.36e-07 s⁻¹ | – | – | WAb0011 (antibody, V domains shown, constant regions not tied to this antibody; also called WAb CD0011) VH: QVQLVQSGAEVKKPGASVKVSCKASGYTFTGSYVHWVRQAPGQGLEWMGWIDHENGNTIYDQKFQGRVTMTRDTSTSTVYMELSSLRSEDTAVYYCARGYDVDWFVYWGQGTLVTVSS VL: DIQMTQSPSSLSASVGDRVTITCSARSSVSYMYWYQQKPGKAPKLLIYRTSNLASGVPSRFSGSGSGTDFTLTISSLQPEDFATYYCQQYHSYPPTFGGGTKVEIK
14 | 2.97e-07 s⁻¹ | – | – | WAb0015 (antibody, V domains shown, constant regions not tied to this antibody; also called WAb CD0015) VH: QVQLVQSGAEVKKPGASVKVSCKASGYTFTNYYIHWVRQAPGQGLEWMGWISPDSGGTKYAQKFQGRVTMTRDTSTSTVYMELSSLRSEDTAVYYCARGYDVDWFVYWGQGTLVTVSS VL: DIQMTQSPSSLSASVGDRVTITCSARSSVSYMYWYQQKPGKAPKLLIYRTSNLASGVPSRFSGSGSGTDFTLTISSLQPEDFATYYCQQYHSYPPTFGGGTKVEIK
15 | – | 0.00477 s⁻¹ | 0.000352 s⁻¹ | suPAR_DB05_D12 (scFv, V domains shown, Screened as scFv) VH: QVQLVQSGAEVKKPGASVKVSCKASGFTFTNYYFHWVRQAPGQGLEWMGWIDPENGNTIYDQKFQGRVTMTRDTSTSTVYMELSSLRSEDTAVYYCARGYDVDWFVYWGQGTLVTVSS VL: DIQMTQSPSSLSASVGDRVTITCSARSSVSYMYWYQQKPGKAPKLLIYRTSNLASGVPSRFSGSGSGTDFTLTISSLQPEDFATYYCQQYHSYPPTFGGGTKVEIK
16 | – | 0.00208 s⁻¹ | 0.000767 s⁻¹ | suPAR_DB05_E01 (scFv, V domains shown, Screened as scFv) VH: QVQLVQSGAEVKKPGASVKVSCKASGYTFTNYYMHWVRQAPGQGLEWMGWIDHENGNTIYDQKFQGRVTMTRDTSTSTVYMELSSLRSEDTAVYYCARGYDVDWFVYWGQGTLVTVSS VL: DIQMTQSPSSLSASVGDRVTITCRARSSVSYMYWYQQKPGKAPKLLIYRTSNLASGVPSRFSGSGSGTDFTLTISSLQPEDFATYYCQQYHSYPPTFGGGTKVEIK
17 | – | 0.00544 s⁻¹ | 0.000354 s⁻¹ | suPAR_DB05_E04 (scFv, V domains shown, Screened as scFv) VH: QVQLVQSGAEVKKPGASVKVSCKASGYSFTSNYMHWVRQAPGQGLEWMGWIDHENGNTIYDQKFQGRVTMTRDTSTSTVYMELSSLRSEDTAVYYCARGYDVDWFVYWGQGTLVTVSS VL: DIQMTQSPSSLSASVGDRVTITCSARSSVSYMYWYQQKPGKAPKLLIYRTSNLASGVPSRFSGSGSGTDFTLTISSLQPEDFATYYCQQYHSYPPTFGGGTKVEIK
18 | – | 0.00165 s⁻¹ | 0.000298 s⁻¹ | suPAR_DB05_E05 (scFv, V domains shown, Screened as scFv) VH: QVQLVQSGAEVKKPGASVKVSCKASGYNFTNYYMHWVRQAPGQGLEWMGWIDHSNGSTIYDQKFQGRVTMTRDTSTSTVYMELSSLRSEDTAVYYCARGYDVDWFVYWGQGTLVTVSS VL: DIQMTQSPSSLSASVGDRVTITCSARSSVSYMYWYQQKPGKAPKLLIYRTSNLASGVPSRFSGSGSGTDFTLTISSLQPEDFATYYCQQYHSYPPTFGGGTKVEIK
19 | – | 0.00535 s⁻¹ | 0.000265 s⁻¹ | suPAR_DB05_E03 (scFv, V domains shown, Screened as scFv) VH: QVQLVQSGAEVKKPGASVKVSCKASGHTLNSYYIHWVRQAPGQGLEWMGWIDPSGGNTIYDQKFQGRVTMTRDTSTSTVYMELSSLRSEDTAVYYCARGYDVDWFVYWGQGTLVTVSS VL: DIQMTQSPSSLSASVGDRVTITCSARSSVSYMYWYQQKPGKAPKLLIYRTSNLASGVPSRFSGSGSGTDFTLTISSLQPEDFATYYCQQYHSYPPTFGGGTKVEIK
20 | 2.44e-07 s⁻¹ | – | – | WAb0013 (antibody, V domains shown, constant regions not tied to this antibody; also called WAb CD0013) VH: QVQLVQSGAEVKKPGASVKVSCKASGYTFTNYYMHWVRQAPGQGLEWMGWIDHENGSTIYAQKFQGRVTMTRDTSTSTVYMELSSLRSEDTAVYYCARGYDVDWFVYWGQGTLVTVSS VL: DIQMTQSPSSLSASVGDRVTITCSARQSVSYMYWYQQKPGKAPKLLIYRTSNLASGVPSRFSGSGSGTDFTLTISSLQPEDFATYYCQQYHSYPPTFGGGTKVEIK
21 | – | 0.00517 s⁻¹ | 0.000824 s⁻¹ | suPAR_DB05_E02 (scFv, V domains shown, Screened as scFv) VH: QVQLVQSGAEVKKPGASVKVSCKASGYTFTSYYMHWVRQAPGQGLEWMGWIDLNSGGAKYAQRFQGRVTMTRDTSTSTVYMELSSLRSEDTAVYYCARGYDVDWFVYWGQGTLVTVSS VL: DIQMTQSPSSLSASVGDRVTITCSARSSVSYMYWYQQKPGKAPKLLIYRTSNLASGVPSRFSGSGSGTDFTLTISSLQPEDFATYYCQQYHSYPPTFGGGTKVEIK
